Assay results reported in patent publication US20180179273A1 (H LUNDBECK A S, published 2018).
Numbering of substitutions follows the chain as printed. “And” between values parts separate entries of the source, which are not always exact repeats. Equal values may be shown once. Read-outs that look alike come from different tables or passages of the source.

B1: GM37 (antibody, V domains shown)
VH: EVQLLESGGGLVQTGGSLRLSCAASGFTFSSYAMTWVRQAPGKGLEWVSAIRSNGDRTDYADSVKGRFTISRDNSQNTLYLQMNSLRAEDTAVYYCAKNWAPFDSWGQGTLVT
VL: not shown
notes: also called GM37wt; GM37 wt
B2: GM37 variant 1 (antibody, V domains shown)
VH: B1 VH with N54S
VL: not shown
B3: GM37 variant 3 (antibody, V domains shown)
VH: B1 VH with N54H
VL: not shown
B4: GM285 (antibody, V domains shown)
VH: EVQLLESGGGLVQPGGSLRLSCAASGFTFSRFTMTWVRQAPGKGLEWVSAISGSGGGTSYADSVKGRLTVSRDNSKNTLYLQMNSLRAEDTAVYYCAKNWAPFDYWGQGTLVT
VL: not shown
notes: Human IgG1/kappa
B5: 9E4 (antibody, V domains shown)
VH: EVQLVESGGGLVQPGGSLRLSCAASGFTFSNYGMSWVRQAPGKGLEWVASISSGGGSTYYPDNVKGRFTISRDNAKNSLYLQMNSLRAEDTAVYYCARGGAGIDYWGQGTLVTVSS
VL: DIQMTQSPSSLSASVGDRVTITCKSIQTLLYSSNQKNYLAWFQQKPGKAPKLLIYWASIRKSGVPSRFSGSGSGTDFTLTISSLQPEDLATYYCQQYYSYPLTFGGGTKLEIKR
notes: Generated from the VH and VL of hybridoma PTA-8221; also called comparator antibody 9E4
B6: ch2E6 (antibody, V domains shown)
VH: QVQLQQPGAELVKPGASVKLSCTASGYTFTSYWMHWMKQRPGRGLEWIGRIDPNSGTTKYNVNFKTKATLTVDKPSSTAYMHLSSLTSEDSAVYYCARLGHYGNLYAMDYWGQGTSVT
VL: QIVLTQSPAIMSASPGEKVTMTCSASSSVSYMHWYQQKSGTSPKRWIYDTSKLASGVPTRFSGSGSGTSYSLTISSMDTEDAATYYCQQWSSNPPTFGAGTKLELK
notes: also called chimeric 2E6
B7: 2E6-HLD-1 (antibody, V domains shown)
VH: QVQLVQSGAEVKKPGASVKVSCKASGYTFTSYWMHWMRQAPGQGLEWIGRIDPNSGTTKYNVNFKTRATLTVDKSTSTAYMELSSLRSEDTAVYYCARLGHYGNLYAMDYWGQGTLVT
VL: EIVLTQSPATLSLSPGERATLSCSASSSVSYMHWYQQKPGQAPRRWIYDTSKLASGVPARFSGSGSGTDYTLTISSLEPEDFAVYYCQQWSSNPPTFGQGTKLEIKR
notes: Humanized 2E6 tested as IgG; also called Humanized HLD-1
B8: 2E6 HLD 3 (antibody, V domains shown)
VH: B7 VH with A68V
VL: B7 VL
B9: 2E6-HLD-2 (antibody, V domains shown)
VH: B7 VH with M37V
VL: B7 VL
notes: Humanized 2E6
B10: 9C12 (antibody, V domains shown)
VH: B7 VH with F64I
VL: EIVLTQSPATLSLSPGERATLSCSASSSVSYMHWYQQKPGQAPRRLIYDTSKLASGVPARFSGSGSGTDYTLTISSLEPEDFAVYYCQQWSSNPPTFGQGTKLEIK
B11: 7C4 (antibody, V domains shown)
VH: B7 VH with S31R, L45P
VL: B10 VL with Y31F, L46W
B12: 8D9 (antibody, V domains shown)
VH: B7 VH with M108K
VL: B10 VL with M32I, L46W

Legend:
human gamma-synuclein [1] = target: T1, human gamma-synuclein (human, UniProt O76070 1-127); experiment: Octet (ForteBio), antibody coupled to amine-reactive sensors, synuclein in solution [continued), Human gamma-syn]
T1 construct: Screening ligand; also called Gamma Panel
T1 sequence (O76070 whole entry): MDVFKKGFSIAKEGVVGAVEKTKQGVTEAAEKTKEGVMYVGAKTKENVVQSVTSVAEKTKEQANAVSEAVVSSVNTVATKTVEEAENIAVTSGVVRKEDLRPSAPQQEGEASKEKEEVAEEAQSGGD
Description: (§1) Amine reactive sensors (ForteBio, art. no. 18-0008) were used for immobilization of HuMabs. […] Activated sensors were immobilized with HuMabs during 600 seconds.

human alpha-synuclein [2] = target: T2, human alpha-synuclein (human, UniProt P37840 1-140); experiment: SPR BIAcore T200, human alpha-synuclein immobilised, antibody as analyte, 1:1 binding fit
human alpha-synuclein [3] = target: T2, human alpha-synuclein; experiment: SPR BIAcore 3000, antibody captured by goat anti-human IgG on CM5 chip, human alpha-synuclein as analyte; calculated binding constants [continued) C]
human beta-synuclein [4] = target: T3, human beta-synuclein (human, UniProt Q16143 1-134); experiment: Octet (ForteBio), antibody coupled to amine-reactive sensors, synuclein in solution [Human beta-syn]
T3 construct: Screening ligand; also called Beta Panel
T3 sequence (Q16143 whole entry): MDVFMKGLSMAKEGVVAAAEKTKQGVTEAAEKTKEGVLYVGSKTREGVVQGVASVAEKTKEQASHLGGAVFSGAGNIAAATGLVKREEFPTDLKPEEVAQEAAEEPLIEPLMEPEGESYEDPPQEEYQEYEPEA
Description: as §1

human beta-synuclein [5] = target: T3, human beta-synuclein; experiment: Octet (ForteBio), antibody coupled to amine-reactive sensors, synuclein in solution [continued), Human beta-syn]
human alpha-synuclein [6] = target: T2, human alpha-synuclein; experiment: SPR BIAcore 3000, antibody captured by goat anti-human IgG on CM5 chip, human alpha-synuclein as analyte; calculated binding constants [continued) C]; remark: listed apart in the source
human gamma-synuclein [7] = target: T1, human gamma-synuclein; experiment: Octet (ForteBio), antibody coupled to amine-reactive sensors, synuclein in solution [continued), Human gamma-syn]; remark: listed apart in the source
human alpha-synuclein [8] = target: T2, human alpha-synuclein; experiment: SPR BIAcore 3000, antibody captured by goat anti-human IgG on CM5 chip, human alpha-synuclein as analyte; calculated binding constants [continued) C]; remark: listed apart in the source
human alpha-synuclein [9] = target: T2, human alpha-synuclein; experiment: SPR Biacore 3000, IgG captured by anti-human IgG on CM5 chip
human alpha-synuclein [10] = target: T2, human alpha-synuclein; experiment: as above; remark: listed apart in the source
human alpha-synuclein [11] = target: T2, human alpha-synuclein; experiment: SPR Biacore 3000, synuclein ligand format

Row | Binder | KD improvement (human alpha-synuclein [10]) | Ka (human alpha-synuclein [10]) | Kd (human alpha-synuclein [10]) | koff (human alpha-synuclein [10]) | kon (human alpha-synuclein [10]) | KD improvement (human alpha-synuclein [11]) | Ka (human alpha-synuclein [11]) | koff (human alpha-synuclein [11]) | kon (human alpha-synuclein [11]) | also measured
1 | B1 | – | – | – | – | – | – | – | – | – | binding result (human gamma-synuclein [1]): no binding; Kd (human alpha-synuclein [2]): 27 nM and 28 nM; koff (human alpha-synuclein [2]): 0.0192 s⁻¹ and 0.0148 s⁻¹; kon (human alpha-synuclein [2]): 701000 M⁻¹ s⁻¹ and 528000 M⁻¹ s⁻¹; Ka (human alpha-synuclein [3]): 2.33e+08 M⁻¹; Kd (human alpha-synuclein [3]): 4.29 nM; binding result (human beta-synuclein [4]): no binding
2 | B2 | – | – | – | – | – | – | – | – | – | Kd (human alpha-synuclein [2]): 22 nM; koff (human alpha-synuclein [2]): 0.0137 s⁻¹; kon (human alpha-synuclein [2]): 634000 M⁻¹ s⁻¹
3 | B3 | – | – | – | – | – | – | – | – | – | Kd (human alpha-synuclein [2]): 40 nM; koff (human alpha-synuclein [2]): 0.0228 s⁻¹; kon (human alpha-synuclein [2]): 577000 M⁻¹ s⁻¹
4 | B4 | – | – | – | – | – | – | – | – | – | binding result (human beta-synuclein [5]): no binding; Ka (human alpha-synuclein [6]): 2.33e+08 M⁻¹; Kd (human alpha-synuclein [6]): 4.3 nM; binding result (human gamma-synuclein [7]): no binding
5 | B5 | – | – | – | – | – | – | – | – | – | Ka (human alpha-synuclein [8]): 2.58e+08 M⁻¹; Kd (human alpha-synuclein [8]): 3.88 nM
6 | B6 | 1 fold | 1.76e+07 M⁻¹ | 56.7 nM | 0.00139 s⁻¹ | 24500 M⁻¹ s⁻¹ | 1 fold | 2.38e+08 M⁻¹ | 0.000265 s⁻¹ | 62900 M⁻¹ s⁻¹ | KD improvement (human alpha-synuclein [9]): 1 fold; Ka (human alpha-synuclein [9]): 1.76e+07 M⁻¹; Kd (human alpha-synuclein [9]): 56.7 nM; koff (human alpha-synuclein [9]): 0.00139 s⁻¹; kon (human alpha-synuclein [9]): 24500 M⁻¹ s⁻¹; Kd (human alpha-synuclein [11]): 4.21 nM
7 | B7 | 2.5 fold | 4.4e+07 M⁻¹ | 22.7 nM | 0.000944 s⁻¹ | 41600 M⁻¹ s⁻¹ | 2 fold | 5.81e+08 M⁻¹ | 0.000212 s⁻¹ | 123000 M⁻¹ s⁻¹ | KD improvement (human alpha-synuclein [9]): 2.5 fold; Ka (human alpha-synuclein [9]): 4.4e+07 M⁻¹; Kd (human alpha-synuclein [9]): 22.7 nM; koff (human alpha-synuclein [9]): 0.000944 s⁻¹; kon (human alpha-synuclein [9]): 41600 M⁻¹ s⁻¹; Kd (human alpha-synuclein [11]): 1.72 nM
8 | B8 | – | – | – | – | – | 1 fold | 1.88e+08 M⁻¹ | 0.00026 s⁻¹ | 48900 M⁻¹ s⁻¹ | –
9 | B9 | – | – | – | – | – | 1 fold | 2.04e+08 M⁻¹ | 0.000285 s⁻¹ | 58000 M⁻¹ s⁻¹ | Kd (human alpha-synuclein [11]): 4.91 nM
10 | B10 | 10 fold | 1.78e+08 M⁻¹ | 5.62 nM | 0.000278 s⁻¹ | 49500 M⁻¹ s⁻¹ | – | – | – | – | –
11 | B11 | 7 fold | 1.23e+08 M⁻¹ | 8.12 nM | 0.000997 s⁻¹ | 123000 M⁻¹ s⁻¹ | – | – | – | – | –
12 | B12 | 8.7 fold | 1.53e+08 M⁻¹ | 6.52 nM | 0.000483 s⁻¹ | 74100 M⁻¹ s⁻¹ | – | – | – | – | –
